Laboratory results from patent publication US20060210570A1 (Genentech, published 2006).
Changes are numbered by the printed parent chain. Names and notes keep the numbering of the source.

B1: prostasin (recombinant human, soluble, active two-chain form purified from conditioned medium of CHO cells transfected with full-length prostasin) (enzyme)
chain: not shown
notes: also called purified prostasin; soluble prostasin
B2: sHAI-1B(K401A) (other, human, UniProt O43278 36-465, looked up)
chain: GPPPAPPGLPAGADCLNSFTAGVPGFVLDTNASVSNGATFLESPTVRRGWDCVRACCTTQNCNLALVELQPDRGEDAIAACFLINCLYEQNFVCKFAPREGFINYLTREVYRSYRQLRTQGFGGSGIPKAWAGIDLKVQPQEPLVLKDVENTDWRLLRGDTDVRVERKDPNQVELWGLKEGTYLFQLTVTSSDHPEDTANVTVTVLSTKQTEDYCLASNKVGRCRGSFPRWYYDPTEQICKSFVYGGCLGNKNNYLREEECILACRGVQGGPLRGSSGAQATFPQGPSMERRHPVCSGTCQPTQFRCSNGCCIDSFLECDDTPNCPDASDEAACEKYTSGFDELQRIHFPSDKGHCVDLPDTGLCAESIPRWYYNPFSEHCARFTYGGCYGNKNNFEEEQQCLESCRGISKKDVFGLRREIPIPSTGSVE
B3: sHAI-1B(R260A) (other, human, UniProt O43278 36-465, looked up)
chain: B2 chain with R225A, A366K

Columns and labels:
aprotinin = aprotinin (UniProt P00974 36-93); test: affinity chromatography of prostasin on immobilised aprotinin
sHAI-1B(K401A) = target: B2; test: prostasin incubated with 20 nM mutant sHAI-1B, immunoblot (FIG. 2B)
Method: (§1) FIG. 2. […] Prostasin of indicated concentration was incubated with 20 nM wildtype sHAI-1B (A) or mutant sHAI-1B (B) at 37° C. for 0.5 or 2 h. The reactions were stopped by addition of SDS sample buffer with DTT. 30 μl of each sample was boiled or not boiled (as indicated) followed by immunoblotting analysis using anti-HAI-1B polyclonal antibody.
(§2) Prostasin was incubated with sHAI-1B comprising the entire extracellular domain of HAI-1B (Kirchhofer, Peek et al. 2003) at different molar ratios (FIG.2A).

sHAI-1B(R260A) = target: B3; test: incubation at 37 C, SDS-PAGE and immunoblot with anti-HAI-1B polyclonal antibody
Method: as §1, §2

[1] = target: B1; test: cell-based or functional assay
[2] = target: B1; test: cell-based or functional assay; remark: listed apart in the source

Binder	binding result (aprotinin)	binding result (sHAI-1B(K401A))	binding result (sHAI-1B(R260A))	IC50 (nM), inhibition of prostasin amidolytic activity towards S2765 [1] [nM]	fold less potent than wildtype sHAI-1B in the prostasin inhibition assay [2] [fold]	inhibitory activity of KD2 relative to KD1 in prostasin enzymatic assays [2] [%]
B1	binds	binds	no binding	–	–	–
B2	–	–	–	75.3	–	–
B3	–	–	–	> 1000	≥ 18	< 6
